# Patent US20230126400A1 (Alector, published 2023)
# B1: anti-MS4A4A antibody 4A-217, huIgG1 chimera (antibody, V domains shown)
# VH: EVKLVESGGGLVKPGGSLKLSCAASGFTFSSYGMSWVRQTPEKRLEWVAHISGGGTFTHYPDSVKGRFTISRDNAKNNLYLQMSSLRSEDTALYYCAREGAGTRFAYWGQGTLVTVSS
# VL: DIQMTQTTSSLSASLGDRVTISCRPSQDISNSLNWYQQKPDGTVKLLIYSTSKLHSGVPSRFSGSGSGIDYSLTISNLEQEDIATYFCQQDYTLPWTFGGGTKLDVK
# B2: anti-MS4A4A antibody 4A-208, huIgG1 chimera (antibody, V domains shown)
# VH: EVHLQQSGAEVVKPGASVKLSCTASGFNIKDTYIHWVMQRPEQGLEWIGRIDPANDNTKYDPKFQGKATITSDTSSNTAYLHLSSLTSEDTAVYYCARIAYGSWALDYWGQGTSVTVSS
# VL: DIVMTQSQKFMSTSVGDRVIVTCKASQNVDTNVAWYQQKPGQSPKTLIYSASFRYSGVPDRFTGSGSGTDFTLSISNVQSEDLAEYFCQQYNSYPWTFGGGTKLEIK
# B3: anti-MS4A4A antibody 4A-206, huIgG1 chimera (antibody, V domains shown)
# VH: EVKLVESGGGLVKPGGSLKLSCAASGFTFSSYTMSWVRQTPEKRLEWVASLSSGGSTYYPDSVKGRFTISRDNARNILYLQMSSLRSEDTAMYYCAKDYYVSSYRWYFDVWGAGTTVTVSS
# VL: DIQMTQITSSLSASLGDRVTISCRASQDISNYLNWYQQKPDGTVKLLIYYTSNLHSGVPSRFSGSGSGTDYSLTISNLEQEDIATYFCQQGKSFPWTFGGGTKLEIK
# B4: anti-MS4A4A antibody 4A-213, huIgG1 chimera (antibody, V domains shown)
# VH: QVQLKESGPGLVAPSQSLSITCTVSGFSLTSYGVHWVRQPPGKGLEWLGVIWVGGSTNYNSALMSRLSISKDNSKSQVFLKMNSLQTDDTAMYYCARAVYYYGSSYYFDYWGQGTTVTVSS
# VL: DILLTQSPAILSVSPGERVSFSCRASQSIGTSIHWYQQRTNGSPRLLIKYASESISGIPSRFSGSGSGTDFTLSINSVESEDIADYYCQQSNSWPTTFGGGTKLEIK
# B5: anti-MS4A4A antibody 4A-209, huIgG1 chimera (antibody, V domains shown)
# VH: EVKLLESGGGLVQPGGSLKLSCAASGFDFSRYWMSWVRQAPGKGLEWIGEIKSDSSTINYTPSLKDKFIISRDNAKNTLYLQMSKVRSEDTALYYCARRGFYDYDAWFAYWGQGTLVTVSS
# VL: QIVLTQSPTLMSASPGEKVTMTCSASSSVTYMYWYQQKPRSSPKPWIYLTSNRASGVPTRFSGSGSGTSHSLTISYMEAEDAATYYCQQWSSNPPTFGAGTKLELR
# B6: anti-MS4A4A antibody 4A-207, huIgG1 chimera (antibody, V domains shown)
# VH: EVNLEESGGGLVQPGGSMKLSCVASGFTFNNYWMNWVRQSPEKGLEWVAEIRLKSNNYATHYAESVKGRFTISRDDSKSSVYLQMNNLRPEDTAIYYCTTDPPMDYSGQGTPVTVSS
# VL: QIVLTQSPAFMSASPGEKVTITCSASSSVSYMHWFQQKPGTSPKLWIYSTSNLVSGVPDRFSGSGSGTSYSLTISRMEAEYAATYYCHQRTSYPWTFGGGTKLEIK
# Molecular target: T1, human MS4A4A (human, UniProt Q96JQ5 1-239)
# Experiment: FACS, parental U937 cells (endogenous human MS4A4A, not overexpressed), 5 ug/ml
# Experimental: (§1) Purified huIgG1 chimeric anti-MS4A4A antibodies were screened for their ability to differentially bind MS4A4A on U937 cells stably overexpressing human MS4A4A, U937 cells with human MS4A4A knocked out, and parental U937 cells. Differential binding to MS4A4A expressed on these cells was assessed by FACS analysis using 5 μg/ml of purified anti-MS4A4A chimeric antibodies, as described above.
row,Binder,ratio of MFI over secondary antibody alone
1,B1,1.1 ratio
2,B2,1.1 ratio
3,B3,1.1 ratio
4,B4,1.1 ratio
5,B5,1.1 ratio
6,B6,1.1 ratio

# Molecular target: T1, human MS4A4A
# Experiment: FACS, U937 cells overexpressing human MS4A4A, 5 ug/ml
# Experimental: as §1
row,Binder,ratio of MFI over secondary antibody alone
1,B1,23.6 ratio
2,B2,19.9 ratio
3,B3,18.5 ratio
4,B4,13 ratio
5,B5,19.8 ratio
6,B6,10 ratio
